For one substance, T cell proliferation (DELFIA, TRF intensity) of activated CD3+ T cells treated with Galectin-9 results are on record in publication PMC10174300.

The assay addresses T cell immunoglobulin-3 (TIM-3) (human (endogenous in CD3+ T cells from PBMCs)) (UniProt Q8TDQ0).

Galectin-9, sequence (O00182 whole entry): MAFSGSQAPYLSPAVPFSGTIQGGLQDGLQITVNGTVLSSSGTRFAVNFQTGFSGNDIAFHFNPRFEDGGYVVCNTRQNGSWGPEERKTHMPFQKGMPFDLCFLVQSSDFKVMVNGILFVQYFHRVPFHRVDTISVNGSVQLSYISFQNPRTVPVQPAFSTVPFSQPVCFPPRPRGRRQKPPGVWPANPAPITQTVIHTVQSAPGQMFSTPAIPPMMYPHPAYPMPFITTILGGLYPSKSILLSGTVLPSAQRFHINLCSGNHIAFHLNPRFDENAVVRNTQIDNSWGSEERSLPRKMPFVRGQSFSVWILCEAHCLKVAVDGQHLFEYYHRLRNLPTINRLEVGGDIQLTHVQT

In the case of “Galectin-9 (from UniProt O00182 1-355) (ligand)”, the T cell proliferation (DELFIA, TRF intensity) of activated CD3+ T cells treated with Galectin-9 at 55.6 nM, against activated T cells without Galectin-9 amounted to 50%.
